From the supplement of paper PMC10567573

B1: SNAP91 (parent)
chain: FGGSFMAPSPSPVTPAQNNLLQPN
B2: IRX6 (parent)
chain: YPCLEKPRIWSLAHTATASAVEGA
B3: KCNG1 (parent)
chain: LFVTVTAVNLSVSTLPSLREEEEQ

Variants of: B1
Test: protein stability index of a GFP-peptide fusion (GPS, HEK-293T) (PSI 1-6); higher = more stable
Conditions: c terminus: a fixed tail appended
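Also: lentivirally expressed fusions sorted by FACS into six bins by GFP to DsRed ratio, PSI derived from sequencing read proportions per bin multiplied by bin number.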

Point of comparison: FGGSFMAPSPQPVTPAQNNLLQPN [S11Q], protein stability index 3.14. Against it:
- FGGSFMAPSVSPVTPAQNNLLQPN [P10V] — lower, 1.58
- FGGSFMAPSHSPVTPAQNNLLQPN [P10H] — lower, 2.52
- FGGSFMAPSRSPVTPAQNNLLQPN [P10R] — lower, 1.13
- FGGSFMAPSASPVTPAQNNLLQPN [P10A] — higher, 4.52
- FGGSFMAPSNSPVTPAQNNLLQPN [P10N] — lower, 1.51
- FGGSFMAPSKSPVTPAQNNLLQPN [P10K] — lower, 3.1
- FGGSFMAPSQSPVTPAQNNLLQPN [P10Q] — lower, 2.7
- FGGSFMAPSGSPVTPAQNNLLQPN [P10G] — lower, 2.18
- FGGSFMAPSCSPVTPAQNNLLQPN [P10C] — lower, 2.45
- FGGSFMAPSESPVTPAQNNLLQPN [P10E] — lower, 1.22
- FGGSFMAPSYSPVTPAQNNLLQPN [P10Y] — lower, 2.38
- FGGSFMAPSFSPVTPAQNNLLQPN [P10F] — lower, 2.89
- FGGSFMAPSSSPVTPAQNNLLQPN [P10S] — lower, 2.49
- FGGSFMAPSLSPVTPAQNNLLQPN [P10L] — lower, 2.55
- FGGSFMAPSDSPVTPAQNNLLQPN [P10D] — lower, 2.72
- FGGSFMAPSPSPVTPAQNNLRQPN [L21R] — lower, 2.88
- FGGSFMAPSPLPVTPAQNNLLQPN [S11L] — lower, 2.84
- FGGSFMAPSPKPVTPAQNNLLQPN [S11K] — lower, 1.98
- FGGSFMAPSPEPVTPAQNNLLQPN [S11E] — lower, 2.38
- FGGSFMAPSPMPVTPAQNNLLQPN [S11M] — lower, 2.83
- FGGSFMAPSPVPVTPAQNNLLQPN [S11V] — higher, 3.42
- FGGSFMAPSPRPVTPAQNNLLQPN [S11R] — lower, 1.68
- FGGSIMAPSPSPVTPAQNNLLQPN [F5I] — higher, 4.03
- FGGSAMAPSPSPVTPAQNNLLQPN [F5A] — higher, 3.83

Variants of: B2
Test: as above
Conditions: c terminus: a fixed tail appended

Point of comparison: YPCLEKPRIWSLAHTATASAVETA [G23T], protein stability index 2.95. Against it:
- YPCLEKPRIWSLAHTATASAPEGA [V21P] — higher, 3.82
- YPCLEKPCIWSLAHTATASAVEGA [R8C] — higher, 3.13
- YPCLEKPVIWSLAHTATASAVEGA [R8V] — lower, 2.48
- YPCLEKPIIWSLAHTATASAVEGA [R8I] — lower, 2.87
- YPCLEKPRIWSLAHTYTASAVEGA [A16Y] — higher, 2.99
- YPCLFKPRIWSLAHTATASAVEGA [E5F] — higher, 3.7
- YPCLGKPRIWSLAHTATASAVEGA [E5G] — higher, 3.15
- YPCLEKPRIWSLAHAATASAVEGA [T15A] — lower, 2.74
- YPCLEKPRIWSLAHSATASAVEGA [T15S] — lower, 2.26
- YFCLEKPRIWSLAHTATASAVEGA [P2F] — lower, 2.41
- YVCLEKPRIWSLAHTATASAVEGA [P2V] — lower, 2.51
- YSCLEKPRIWSLAHTATASAVEGA [P2S] — lower, 1.7
- YWCLEKPRIWSLAHTATASAVEGA [P2W] — higher, 3.12
- YPCLEKPRIWSLAHTASASAVEGA [T17S] — lower, 1.83
- YPCLEKPRIWSLAHTATYSAVEGA [A18Y] — higher, 3
- YPCLEKPRIWSLAHTATNSAVEGA [A18N] — lower, 2.65
- GPCLEKPRIWSLAHTATASAVEGA [Y1G] — higher, 3.53
- YPCLEMPRIWSLAHTATASAVEGA [K6M] — lower, 2.41
- YPCLEKPRRWSLAHTATASAVEGA [I9R] — lower, 2.27
- YPCLEKPRIWSLAHTATASAVECA [G23C] — lower, 1.41
- YPCTEKPRIWSLAHTATASAVEGA [L4T] — higher, 3.03
- YPCLEKVRIWSLAHTATASAVEGA [P7V] — lower, 1.89
- YPCLEKPRIWSLAHTATASAVFGA [E22F] — higher, 3.04
- YPCLEKPRICSLAHTATASAVEGA [W10C] — higher, 3.19
- YPCLEKPRIMSLAHTATASAVEGA [W10M] — higher, 3.65
- YPCLEKPRIWDLAHTATASAVEGA [S11D] — lower, 1.74
- YPCLEKPRIWCLAHTATASAVEGA [S11C] — lower, 1.61
- YPCLEKPRIWSLAPTATASAVEGA [H14P] — lower, 2.48
- YPCLEKPRIWSLAFTATASAVEGA [H14F] — higher, 4.18
- YPCLEKPRIWSTAHTATASAVEGA [L12T] — lower, 2.72
- YPCLEKPRIWSEAHTATASAVEGA [L12E] — lower, 1.7
- YPCLEKPRIWSGAHTATASAVEGA [L12G] — lower, 2.03
- YPCLEKPRIWSLAHTATASFVEGA [A20F] — lower, 1.69

Variants of: B3
Test: as above
Conditions: c terminus: a fixed tail appended

Point of comparison: LRVTVTAVNLSVSTLPSLREEEEQ [F2R], protein stability index 2.5. Against it:
- DFVTVTAVNLSVSTLPSLREEEEQ [L1D] — higher, 4.52
- QFVTVTAVNLSVSTLPSLREEEEQ [L1Q] — higher, 3.71
- FFVTVTAVNLSVSTLPSLREEEEQ [L1F] — lower, 1.95
- KFVTVTAVNLSVSTLPSLREEEEQ [L1K] — higher, 3.84
- AFVTVTAVNLSVSTLPSLREEEEQ [L1A] — lower, 1.78
- HFVTVTAVNLSVSTLPSLREEEEQ [L1H] — higher, 3.62
- NFVTVTAVNLSVSTLPSLREEEEQ [L1N] — higher, 4.05
- TFVTVTAVNLSVSTLPSLREEEEQ [L1T] — higher, 2.62
- EFVTVTAVNLSVSTLPSLREEEEQ [L1E] — higher, 4.32
- SFVTVTAVNLSVSTLPSLREEEEQ [L1S] — higher, 3.56
- MFVTVTAVNLSVSTLPSLREEEEQ [L1M] — lower, 1.98
- YFVTVTAVNLSVSTLPSLREEEEQ [L1Y] — lower, 1.97
- RFVTVTAVNLSVSTLPSLREEEEQ [L1R] — higher, 3.04
- GFVTVTAVNLSVSTLPSLREEEEQ [L1G] — higher, 3.23
- CFVTVTAVNLSVSTLPSLREEEEQ [L1C] — lower, 2.1
- IFVTVTAVNLSVSTLPSLREEEEQ [L1I] — lower, 2.27
- PFVTVTAVNLSVSTLPSLREEEEQ [L1P] — higher, 4.33
- LHVTVTAVNLSVSTLPSLREEEEQ [F2H] — lower, 2.19
- LKVTVTAVNLSVSTLPSLREEEEQ [F2K] — lower, 1.72
- LCVTVTAVNLSVSTLPSLREEEEQ [F2C] — lower, 1.67
- LGVTVTAVNLSVSTLPSLREEEEQ [F2G] — lower, 2.41
- LYVTVTAVNLSVSTLPSLREEEEQ [F2Y] — lower, 1.75
- LPVTVTAVNLSVSTLPSLREEEEQ [F2P] — higher, 4.83
- LTVTVTAVNLSVSTLPSLREEEEQ [F2T] — lower, 1.25
- LSVTVTAVNLSVSTLPSLREEEEQ [F2S] — lower, 1.99
- LAVTVTAVNLSVSTLPSLREEEEQ [F2A] — lower, 2.27
- LQVTVTAVNLSVSTLPSLREEEEQ [F2Q] — lower, 2.09
- LNVTVTAVNLSVSTLPSLREEEEQ [F2N] — lower, 2.27
- LMVTVTAVNLSVSTLPSLREEEEQ [F2M] — lower, 1.26
- LDVTVTAVNLSVSTLPSLREEEEQ [F2D] — higher, 3.99
- LLVTVTAVNLSVSTLPSLREEEEQ [F2L] — lower, 1.95
- LFATVTAVNLSVSTLPSLREEEEQ [V3A] — higher, 2.67
- LFCTVTAVNLSVSTLPSLREEEEQ [V3C] — higher, 2.65
- LFDTVTAVNLSVSTLPSLREEEEQ [V3D] — higher, 4.92
